Data from patent US20250326807A1, “CALPROTECTIN BINDING PEPTIDES” (Buehlmann Laboratories AG, priority 2022, published 2025).

T1: Recombinantly expressed fused calprotectin (His6-linker-S100A9-linker-S100A8), product code B-RCAL, BÜHLMANN Laboratories AG (human), P06702
T1 chain: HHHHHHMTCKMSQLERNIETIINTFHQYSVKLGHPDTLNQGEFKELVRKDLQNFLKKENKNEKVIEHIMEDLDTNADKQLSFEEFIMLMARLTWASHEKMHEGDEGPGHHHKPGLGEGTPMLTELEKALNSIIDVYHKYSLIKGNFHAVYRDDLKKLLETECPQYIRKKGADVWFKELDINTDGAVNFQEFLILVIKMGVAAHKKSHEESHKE


Molecular target: T1, Recombinantly expressed fused …
Experiment: fluorescence polarization
Details: modification not given

Row | Kd | Binder
1 | 24 nM | RSPESVAFPMFQSHAYSG
2 | 29 nM | RSPESVGFPMFQSHWYSG
3 | 39 nM | RSPESAAFPMFQSHWYSG
4 | 26 nM | RSPASVAFPMFQSHWYSG
5 | 32 nM | ACPECVAFPMFQCHWYCG
6 | 28 nM | RSAESVAFPMFQSHWYSG
7 | 30 nM | RSPESVAFAMFQSHWYSG
8 | 32 nM | ASPESVAFPMFQSHWYSG
9 | 28 nM | RCAECVAFPMFQCHWYCG
10 | 31 nM | RSPESVAFPMFQSHWYSA
11 | 26 nM | RCPACVAFPMFQCHWYCG
12 | 29 nM | RCPECVGFPMFQCHWYCG
13 | 27 nM | RCPECVAFPMFACHWYCG
14 | 27 nM | RSPESVAFPMFASHWYSG
15 | 24 nM | RCPECVAFPMFQCHAYCG
16 | 39 nM | RCPECAAFPMFQCHWYCG
17 | 31 nM | RCPECVAFPMFQCHWYCA
18 | 30 nM | RCPECVAFAMFQCHWYCG

Molecular target: T1, Recombinantly expressed fused …
Experiment: SPR
Details: modification not given

Row | Kd | Binder
19 | > 10 µM | RCPECVAFPMQQCHWYCG [F11 Gln]
20 | > 10 µM | RCPECVAFPMIQCHWYCG [F11 Ile]
21 | > 10 µM | RCPECVAFPMKQCHWYCG [F11 Lys]
22 | > 10 µM | RCPECVAFPMAQCHWYCG [F11 L-Ala]
23 | > 10 µM | RCPECVAEPMFQCHWYCG [F8 Glu]
24 | > 10 µM | RCPECVAYPMFQCHWYCG [F8 Tyr]
25 | > 10 µM | RCPECVAFPMFQCAWYCG [H14 L-Ala]
26 | > 10 µM | RCPECVAAPMFQCHWYCG [F8 L-Ala]
27 | > 10 µM | RCPECVAIPMFQCHWYCG [F8 Ile]
28 | > 10 µM | RCPECVAFPMFQCHWACG [Y16 L-Ala]
29 | > 10 µM | RCPECVAQPMFQCHWYCG [F8 Gln]
30 | > 10 µM | RCPECVAFPMEQCHWYCG [F11 Glu]
